Results: paper PMC9208311

Target: zebrafish procaspase-3b (CP-C117S) (zebrafish (Danio rerio))
Experiment: SEC; Superdex75 Increase 10/300GL, 25 uM protein, 100 ul loaded, dialysed ~16 h at 25°C; citrate buffer pH 5, 6 and 6.5, phosphate buffer pH 7.5 and 8; column standardised with LMW calibration kit

stoichiometry N: 2
Substance: zebrafish procaspase-3b (CP-C117S) (enzyme)
